Measured values from paper PMC7041945, “Misfolded proteins bind and activate death receptor 5 to trigger apoptosis during unresolved endoplasmic reticulum stress” (eLife, 2020).

Assays:
HCT116 cells [1] = test: Annexin V (and SytoxBlue) flow cytometry for apoptosis; assay type: cell-based, Homo sapiens; conditions: for Mean ± SEM (Fig 1S2D): n=3
Experimental: Cells seeded in a 6-well plate were transfected with the specified plasmid for 24 hr and harvested via trypsinization in complete media to allow a 30 min recovery at 37°C. The samples were then centrifuged at 500xg for 5 min and resuspended In 150 μl of a 1:20 dilution of Annexin V-AlexaFluor 647 conjugate (Thermo Scientific #A23204). Samples were transferred to a 96-well U-bottom plate and incubated in the dark for 15 min at RT. The distribution of apoptotic cells was determined by flow cytometry on a BD LSR II.

HCT116 cells [2] = test: Trypan blue staining, automated cell counting; assay type: cell-based, Homo sapiens; set-up: key to Trypan blue- / Trypan blue+ / avg Trypan blue- / avg Trypan blue+: % of cells (Trypan blue positive or negative); conditions: for avg Trypan blue+ / avg Trypan blue-: avg of Rep 1-3; for Dead concentration / Live concentration / Total Concentration / Viability (%): BF
Experimental: Cells seeded in a 6-well plate were transfected with the specified plasmid for 24 hr and harvested via trypsinization in complete media and ultimately resuspended in 400 μl of media to obtain a concentration of 1.0–3.0 × 10^6 cells/ml. The cell suspension was then mixed 1:1 with 0.4% Trypan blue (Sigma-Aldrich) and incubated at 37°C for 30 min. The percentage of cells staining positive for was then quantified using the Countess II FL Automated Cell Counter (ThermoFisher, catalog # AMQAF1000) default brightfield settings with disposable slides.

[3] = hct chop 62, biological replicate 1 (05.22.2019)
[4] = hct chop 125 (ng), biological replicate 1 (05.22.2019)
[5] = hct chop 125 (ng), biological replicate 2 (05.24.2019)
[6] = hct chop 125 (ng), biological replicate 3 (05.24.2019)
[7] = hct chop 250 (ng), biological replicate 1 (05.22.2019)
[8] = hct chop 250 (ng), biological replicate 2 (05.24.2019)
[9] = hct chop 250 (ng), biological replicate 3 (05.24.2019)
[10] = hct chop 500 (ng), biological replicate 1 (05.22.2019)
[11] = hct chop 500 (ng), biological replicate 2 (05.24.2019)
[12] = hct chop 500 (ng), biological replicate 3 (05.24.2019)
[13] = hct chop 1000 (ng), biological replicate 1 (05.24.2019)
[14] = hct chop 1000 (ng), biological replicate 2 (05.24.2019)
[15] = hct chop 1000 (ng), biological replicate 3 (05.24.2019)

B1: CHOP: CHOP (canonical isoform) expression vector, expression of CHOP in absence of ER stress (protein, UniProt P35638 1-169, looked up)
DNA damage-inducible …: MAAESLPFSFGTLSSWELEAWYEDLQEVLSSDENGGTYVSPPGNEEEESKIFTTLDPASLAWLTEEEPEPAEVTSTSQSPHSPDSSQSSLAQEEEEEDQGRTRKRKQSGHSPARAGKQRMKEKEQENERKVAQLAEENERLKQEIERLTREVEATRRALIDRMVNLHQA
modifications: expression vector
notes: CHOP (canonical isoform) expression vector, expression of CHOP in absence of ER stress
**Q.** What does the source list for B1?
**A.** Difference between means (HCT116 cells [1]; CHOP - 125 ng vs. empty, Welch's correction): 0.4983 ± 1.264; Mean ± SEM (Fig 1S2D) (HCT116 cells [1]; CHOP - 125 ng): 4.046 ± 0.1409, n=3; Difference between means (HCT116 cells [1]; CHOP - 250 ng vs. CHOP - 125 ng, Welch's correction): 4.057 ± 2.101; Mean ± SEM (Fig 1S2D) (HCT116 cells [1]; CHOP - 250 ng): 8.103 ± 2.097, n=3; Difference between means (HCT116 cells [1]; CHOP - 500 ng vs. CHOP - 125 ng, Welch's correction): 4.960 ± 2.593; Difference between means (HCT116 cells [1]; CHOP - 500 ng vs. CHOP - 250 ng, unpaired t test): 0.9028 ± 3.332; Difference between means (HCT116 cells [1]; CHOP - 500 ng vs. MPZ-GFP, unpaired t test): -28.90 ± 5.936; Difference between means (HCT116 cells [1]; CHOP - 500 ng vs. empty, unpaired t test): 5.458 ± 2.878; Mean ± SEM (Fig 1S2D) (HCT116 cells [1]; CHOP - 500 ng): 9.006 ± 2.589, n=3; Trypan blue+ (HCT116 cells [2]; CHOP - 125 ng, Rep 1): 4.216; Trypan blue- (HCT116 cells [2]; CHOP - 125 ng, Rep 1): 95.7841; Trypan blue+ (HCT116 cells [2]; CHOP - 125 ng, Rep 2): 3.766; Trypan blue- (HCT116 cells [2]; CHOP - 125 ng, Rep 2): 96.2338; Trypan blue+ (HCT116 cells [2]; CHOP - 125 ng, Rep 3): 4.155; Trypan blue- (HCT116 cells [2]; CHOP - 125 ng, Rep 3): 95.8447; avg Trypan blue+ (HCT116 cells [2]; CHOP - 125 ng): 4.046; avg Trypan blue- (HCT116 cells [2]; CHOP - 125 ng): 95.9542; Trypan blue+ (HCT116 cells [2]; CHOP - 250 ng, Rep 1): 6.303; Trypan blue- (HCT116 cells [2]; CHOP - 250 ng, Rep 1): 93.6968; Trypan blue+ (HCT116 cells [2]; CHOP - 250 ng, Rep 2): 12.2829; Trypan blue- (HCT116 cells [2]; CHOP - 250 ng, Rep 2): 87.7171; Trypan blue+ (HCT116 cells [2]; CHOP - 250 ng, Rep 3): 5.723; Trypan blue- (HCT116 cells [2]; CHOP - 250 ng, Rep 3): 94.2771; avg Trypan blue+ (HCT116 cells [2]; CHOP - 250 ng): 8.103; avg Trypan blue- (HCT116 cells [2]; CHOP - 250 ng): 91.897; Trypan blue+ (HCT116 cells [2]; CHOP - 500 ng, Rep 1): 14.1844; Trypan blue- (HCT116 cells [2]; CHOP - 500 ng, Rep 1): 85.8156; Trypan blue+ (HCT116 cells [2]; CHOP - 500 ng, Rep 2): 6.367; Trypan blue- (HCT116 cells [2]; CHOP - 500 ng, Rep 2): 93.633; Trypan blue+ (HCT116 cells [2]; CHOP - 500 ng, Rep 3): 6.466; Trypan blue- (HCT116 cells [2]; CHOP - 500 ng, Rep 3): 93.534; avg Trypan blue+ (HCT116 cells [2]; CHOP - 500 ng): 9.006; avg Trypan blue- (HCT116 cells [2]; CHOP - 500 ng): 90.9942; Trypan blue+ (HCT116 cells [2]; CHOP - 1000 ng, Rep 1): 8.481; Trypan blue- (HCT116 cells [2]; CHOP - 1000 ng, Rep 1): 91.5194; Trypan blue+ (HCT116 cells [2]; CHOP - 1000 ng, Rep 2): 6.72; Trypan blue- (HCT116 cells [2]; CHOP - 1000 ng, Rep 2): 93.2796; Trypan blue+ (HCT116 cells [2]; CHOP - 1000 ng, Rep 3): 4.533; Trypan blue- (HCT116 cells [2]; CHOP - 1000 ng, Rep 3): 95.4674; avg Trypan blue+ (HCT116 cells [2]; CHOP - 1000 ng): 6.578; avg Trypan blue- (HCT116 cells [2]; CHOP - 1000 ng): 93.4221; PARP cleavage and trypan blue staining vs misfolded-protein stress (HCT116 cells [2]; comparable CHOP-induced DR5 protein, no ER stress): drastically lower levels of PARP cleavage and trypan blue staining; Dead concentration (HCT116 cells [2]; [3]): 1.35E+05; Live concentration (HCT116 cells [2]; [3]): 2.23E+06; Total Concentration (HCT116 cells [2]; [3]): 2.36E+06; Viability (%) (HCT116 cells [2]; [3]): 94.2928%; Dead concentration (HCT116 cells [2]; [4]): 1.47E+05; Live concentration (HCT116 cells [2]; [4]): 3.33E+06; Total Concentration (HCT116 cells [2]; [4]): 3.48E+06; Viability (%) (HCT116 cells [2]; [4]): 95.7841%; Dead concentration (HCT116 cells [2]; [5]): 3.40E+05; Live concentration (HCT116 cells [2]; [5]): 8.69E+06; Total Concentration (HCT116 cells [2]; [5]): 9.03E+06; Viability (%) (HCT116 cells [2]; [5]): 96.2338%; Dead concentration (HCT116 cells [2]; [6]): 8.03E+05; Live concentration (HCT116 cells [2]; [6]): 1.85E+07; Total Concentration (HCT116 cells [2]; [6]): 1.93E+07; Viability (%) (HCT116 cells [2]; [6]): 95.8447%; Dead concentration (HCT116 cells [2]; [7]): 2.17E+05; Live concentration (HCT116 cells [2]; [7]): 3.23E+06; Total Concentration (HCT116 cells [2]; [7]): 3.44E+06; Viability (%) (HCT116 cells [2]; [7]): 93.6968%; Dead concentration (HCT116 cells [2]; [8]): 5.81E+05; Live concentration (HCT116 cells [2]; [8]): 4.15E+06; Total Concentration (HCT116 cells [2]; [8]): 4.73E+06; Viability (%) (HCT116 cells [2]; [8]): 87.7171%; Dead concentration (HCT116 cells [2]; [9]): 6.69E+05; Live concentration (HCT116 cells [2]; [9]): 1.10E+07; Total Concentration (HCT116 cells [2]; [9]): 1.17E+07; Viability (%) (HCT116 cells [2]; [9]): 94.2771%; Dead concentration (HCT116 cells [2]; [10]): 3.52E+05; Live concentration (HCT116 cells [2]; [10]): 2.13E+06; Total Concentration (HCT116 cells [2]; [10]): 2.48E+06; Viability (%) (HCT116 cells [2]; [10]): 85.8156%; Dead concentration (HCT116 cells [2]; [11]): 2.99E+05; Live concentration (HCT116 cells [2]; [11]): 4.40E+06; Total Concentration (HCT116 cells [2]; [11]): 4.70E+06; Viability (%) (HCT116 cells [2]; [11]): 93.633%; Dead concentration (HCT116 cells [2]; [12]): 3.40E+05; Live concentration (HCT116 cells [2]; [12]): 4.92E+06; Total Concentration (HCT116 cells [2]; [12]): 5.26E+06; Viability (%) (HCT116 cells [2]; [12]): 93.534%; Dead concentration (HCT116 cells [2]; [13]): 2.82E+05; Live concentration (HCT116 cells [2]; [13]): 3.04E+06; Total Concentration (HCT116 cells [2]; [13]): 3.32E+06; Viability (%) (HCT116 cells [2]; [13]): 91.5194%; Dead concentration (HCT116 cells [2]; [14]): 2.93E+05; Live concentration (HCT116 cells [2]; [14]): 4.07E+06; Total Concentration (HCT116 cells [2]; [14]): 4.36E+06; Viability (%) (HCT116 cells [2]; [14]): 93.2796%; Dead concentration (HCT116 cells [2]; [15]): 1.88E+05; Live concentration (HCT116 cells [2]; [15]): 3.95E+06; Total Concentration (HCT116 cells [2]; [15]): 4.14E+06; Viability (%) (HCT116 cells [2]; [15]): 95.4674%
